Series [1] concerns MS2 coat protein. Briefly: apparent KD of MS2 coat protein, switch ON state; designed switch direction (-1 OFF switch, 1 ON switch): 1; higher = weaker reporter binding. The following applies: FMN input: 0 or 200 uM; Eterna round: R93 (includes R88 designs). Summed up:
(§1)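 Binding of SNAP-549-labelled MS2 coat protein was measured on designed RNA switches transcribed on-chip from Illumina sequencing clusters. The protein rose in twofold steps from 0.7 or 1.5 nM to 3 µM, with 0.8–1.5 h per step early on and 10–20 min per step later, in 100 mM Tris-HCl pH 7.5, 80 mM KCl, 4 mM MgCl2, without or with constant ligand. Each design's apparent KD is the median of fits to its normalised cluster binding curves.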

Series [2] has as its system MS2 coat protein. As to the kind of experiment: apparent KD of MS2 coat protein, switch OFF state (with FMN for OFF switches, without FMN for ON switches); designed switch direction (-1 OFF switch, 1 ON switch): 1; higher = weaker reporter binding. To be noted: FMN input: 0 or 200 uM; Eterna round: R93 (includes R88 designs). Summed up:
as §1

Regarding “AGGAGACAUGAGGAUCACCCAUGUGAGAAGAGGCGAGGAUAUCGAAAAAAAGAAAGAAAACGAGAAGGCGCGAGAA [salish99-SS1-015]”, the “apparent KD of MS2 coat protein” value in the series on MS2 coat protein [1] was 37.6 nM; in the series with MS2 coat protein [2] it was 64.5 nM.
For “AGGAGACAUGAGGAUCACCCAUGUGAGAAGAGGCGAGGAUAUCGAAAGAAAGAAGAGAAACGAGAAGGCGCGAGCG [salish99-SS1-028]”, in that order: 26.7 nM and 34.3 nM.
For “AGGAGACAUGAGGAUCACCCAUGUGAGAAGAGGCGAGGAUAUCGAAAGAAAGAAGAGAAACGAGAAGGCGCGAGUG [salish99-SS1-026]”, in that order: 28.1 nM and 40.9 nM.
For “AUAAAACAUGAGGAUCACCCAUGUAGACACGUGGGAGGAUAUACUAGAUCGAAAGAUCUAGUAGAAGGCCUUCGUA [Mat - Same State 1 - JL mod - D94]”, in that order: 23.7 nM and 38.4 nM.
Regarding “AUAAAACAUGAGGAUCACCCAUGUCCGACAAAUCAAGGAUAUGAGAGCCUAACCAGGCUGUUAGAAGGUGAAAGAU [Riteat]”, the “apparent KD of MS2 coat protein” value came to 229 nM in the series on MS2 coat protein [1] and 192 nM in the series with MS2 coat protein [2].
For “AUAAAAGAAGCGAAGGAUAUCCAAAGGACCACAUGAGGAUCACCCAUGUAAAGAAAGAAAAAAUGGGAGAAGGUCGCAAAGAAUA [73%, More Fisker Same State 2, D3, 7]”, the results for the “apparent KD of MS2 coat protein” value with MS2 coat protein [1] and in the series on MS2 coat protein [2] were 74.9 nM and 97.4 nM, respectively.
For “AUAAAAUACUGUGAGGAUAUCCAUAAUAAAACAUGAGGAUCACCCAUGUGUAGAUAAUAAUAAUGGGAGAAGGCACAUAAUAAAU [SS2 M41]”, in that order: 24.2 nM and 27.6 nM.
For “AUAAAUAAAAGCGAGGAUAUCCAAAAAAAAACAUGAGGAUCACCCAUGUAAAAGAAAAUAAAAUGGGAGAAGGCGCAAAAUAAAU [SS2 M 9]”, in that order: 21.2 nM and 7.54 nM.
For “AUAACAACGUAUGAGGAUAUCCUUAAUAAAACAUGAGGAUCACCCAUGUGAAUAAAAUAACAAUUGGAGAAGGCAUACGUACAAU [SS 2 M 52]”, in that order: 15.4 nM and 20.8 nM.
In the case of “AUAACACAUGAGGAUCACCCAUGUAGAUCCACGUCAGGAUAUGCAAAGAAAAUAAACAAAGCAGAAGGGACAAUAA [SS 1 Tesla 1]”, the “apparent KD of MS2 coat protein” value with MS2 coat protein [1] is 47.3 nM; in the series with MS2 coat protein [2], 49.6 nM.
For “AUAAUAAUAAGGUAGGAUAUGCUAAAGUAAACAUGAGGAUCACCCAUGUAAAGAAAAAAACUCAUGUAGAAGGGCCAGAAAUAAA [moonwalk 4]”, in that order: 80.1 nM and 71.5 nM.
In the case of “AUUCCAACUAGUCAGGAUAUCAGGCGUAAGACAUGAGGAUCACCCAUGUACUUAGUACAAGUAACUGAGAAGGGACAGGGUGUAA [JR_SS002_Sub408]”, the “apparent KD of MS2 coat protein” value with MS2 coat protein [1] was 20.3 nM; with MS2 coat protein [2], 25.3 nM.
For “CAUCAUGCGCCUAAGGAUAUGUCUCACAAGACAUGAGGAUCACCCAUGUAGAAUAAAUAAACGAUGCAGAAGGUGGAGUGCAUGC [Vetimaor]”, in that order: 56.7 nM and 361 nM.
For “CGAAAGGAGAGAGAGGAUAUCCAAAGGAAAACAUGAGGAUCACCCAUGUAGAAGGUAGGAGAUUGGGAGAAGGCUCAAGAUAGAG [salish99-ss2-145]”, in that order: 29.5 nM and 73.2 nM.
For “CGAAGACAUGAGGAUCACCCAUGUGGGAAUAUGGGAGGAUAUACAAAGACGAGAGUCAGAGUAGAAGGCCUAGGAU [salish99-ss1-105]”, in that order: 29.5 nM and 78.7 nM.
As to “CGCAGGAAGAGAGAGGAUAUCCAAAGGAAAACAUGAGGAUCACCCAUGUAAAAGGUAGGAAAUUGGGAGAAGGCUCAAGAGAGAG [salish99-ss2-100]”, the figures for the “apparent KD of MS2 coat protein” value in the series on MS2 coat protein [1] and with MS2 coat protein [2] were 34.3 nM and 40.9 nM, respectively.

For the origin of these results see the supplement of paper PMC9170038.
